Test results: publication PMC4601081, “A Single α Helix Drives Extensive Remodeling of the Proteasome Lid and Completion of Regulatory Particle Assembly” (Cell, 2015)
Ends that are not written are not given here.

B5: Rpn8, subunit of LP2 and lid purified from yeast (natural protein, S. cerevisiae, UniProt Q08723 1-338, looked up)
chain: MSLQHEKVTIAPLVLLSALDHYERTQTKENKRCVGVILGDANSSTIRVTNSFALPFEEDEKNSDVWFLDHNYIENMNEMCKKINAKEKLIGWYHSGPKLRASDLKINELFKKYTQNNPLLLIVDVKQQGVGLPTDAYVAIEQVKDDGTSTEKTFLHLPCTIEAEEAEEIGVEHLLRDVRDQAAGGLSIRLTNQLKSLKGLQSKLKDVVEYLDKVINKELPINHTILGKLQDVFNLLPNLGTPDDDEIDVENHDRINISNNLQKALTVKTNDELMVIYISNLVRSIIAFDDLIENKIQNKKIQEQRVKDKQSKVSDDSESESGDKEATAPLIQRKNKKN
notes: Rpn8, S. cerevisiae proteasome lid subunit; source: purified from S. cerevisiae as part of LP2 or lid

Legend:
Settings in all cases: both partners purified
[1] = target: T1, lid particle 2 (LP2), recombinant (S. cerevisiae, UniProt P40016 1-523; Q12250 1-445; Q12377 1-434; Q06103 1-429; Q08723 1-338; Q04062 …); experiment: negative-stain EM; purified recombinant LP2 treated with an equimolar concentration of recombinant Rpn12; 2D class averages
T1 construct: Rpn3, S. cerevisiae proteasome lid subunit; Rpn5, S. cerevisiae proteasome lid subunit; Rpn6, S. cerevisiae proteasome lid subunit; Rpn7, S. cerevisiae proteasome lid subunit; Rpn8, S. cerevisiae proteasome lid subunit; Rpn9, S. cerevisiae proteasome lid subunit; Rpn11, S. cerevisiae proteasome lid subunit; Sem1, S. cerevisiae proteasome lid subunit; legends speak of 'untagged LP2'; operons as in …
T1 sequence (O94742 whole entry, chain 8 of 3, one chain of several, further chain): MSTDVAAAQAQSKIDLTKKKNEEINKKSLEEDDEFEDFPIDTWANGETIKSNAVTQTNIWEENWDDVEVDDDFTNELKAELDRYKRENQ

[2] = target: T2, Rpn5, subunit of LP2 and lid purified from yeast (S. cerevisiae, UniProt Q12250 1-445); experiment: cross-linking; QCLMS of LP2 purified from yeast as a whole complex: BS3-d0 / BS3-d4 at 1:200 protein to cross-linker, Buffer HA, 30°C 1 h; monomeric cross-linked complex cut from SDS-PAGE, trypsin, LC-MS/MS
T2 construct: Rpn5, S. cerevisiae proteasome lid subunit; source: purified from S. cerevisiae as part of LP2 or lid
T2 sequence (looked up): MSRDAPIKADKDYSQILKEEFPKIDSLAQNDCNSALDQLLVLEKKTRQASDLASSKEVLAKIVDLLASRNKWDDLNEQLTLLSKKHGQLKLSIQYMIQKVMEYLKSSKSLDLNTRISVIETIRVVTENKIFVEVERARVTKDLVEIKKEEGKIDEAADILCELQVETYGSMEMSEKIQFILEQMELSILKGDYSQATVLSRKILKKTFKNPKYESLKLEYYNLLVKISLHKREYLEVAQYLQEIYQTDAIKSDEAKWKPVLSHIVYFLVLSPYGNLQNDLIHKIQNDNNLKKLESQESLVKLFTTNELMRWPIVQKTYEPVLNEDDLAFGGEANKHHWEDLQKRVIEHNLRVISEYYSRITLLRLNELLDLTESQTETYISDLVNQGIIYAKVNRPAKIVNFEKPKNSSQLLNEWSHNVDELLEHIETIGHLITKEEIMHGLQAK

[3] = target: B5; experiment: as above
[4] = target: T3, Rpn3, subunit of LP2 and lid purified from yeast (S. cerevisiae, UniProt P40016 1-523); experiment: as above
T3 construct: Rpn3, S. cerevisiae proteasome lid subunit; source: purified from S. cerevisiae as part of LP2 or lid
T3 sequence (looked up): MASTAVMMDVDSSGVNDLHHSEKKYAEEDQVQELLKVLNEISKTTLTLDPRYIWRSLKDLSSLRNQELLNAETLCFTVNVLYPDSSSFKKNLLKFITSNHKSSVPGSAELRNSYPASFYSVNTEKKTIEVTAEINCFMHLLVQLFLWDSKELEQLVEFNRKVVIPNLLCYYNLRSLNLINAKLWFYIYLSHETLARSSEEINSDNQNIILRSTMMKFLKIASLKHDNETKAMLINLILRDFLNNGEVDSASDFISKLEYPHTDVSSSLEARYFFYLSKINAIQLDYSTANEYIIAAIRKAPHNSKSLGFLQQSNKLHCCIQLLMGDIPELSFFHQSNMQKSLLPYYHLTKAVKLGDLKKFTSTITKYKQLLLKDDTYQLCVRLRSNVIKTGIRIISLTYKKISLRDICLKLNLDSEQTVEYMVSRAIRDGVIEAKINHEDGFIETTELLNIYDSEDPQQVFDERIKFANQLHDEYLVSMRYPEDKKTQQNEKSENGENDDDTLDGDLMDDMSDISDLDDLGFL

[5] = target: T1, lid particle 2 (LP2), recombinant; experiment: fluorescence polarisation; fluorescence anisotropy: 1 uM fluorescein-labelled N12pep in Lid Buffer alone, with 1 uM LP2, 5 uM Rpn12, or both; 25°C 20 min; excitation 485 nm, emission 513-528 nm
[6] = target: T4, Rpn6, subunit of LP2 and lid purified from yeast (S. cerevisiae, UniProt Q12377 1-434); experiment: cross-linking; QCLMS of LP2 purified from yeast as a whole complex: BS3-d0 / BS3-d4 at 1:200 protein to cross-linker, Buffer HA, 30°C 1 h; monomeric cross-linked complex cut from SDS-PAGE, trypsin, LC-MS/MS
T4 construct: Rpn6, S. cerevisiae proteasome lid subunit; Also stands as the whole protein for the region row on the E. coli truncations; source: purified from S. cerevisiae as part of LP2 or lid
T4 sequence (looked up): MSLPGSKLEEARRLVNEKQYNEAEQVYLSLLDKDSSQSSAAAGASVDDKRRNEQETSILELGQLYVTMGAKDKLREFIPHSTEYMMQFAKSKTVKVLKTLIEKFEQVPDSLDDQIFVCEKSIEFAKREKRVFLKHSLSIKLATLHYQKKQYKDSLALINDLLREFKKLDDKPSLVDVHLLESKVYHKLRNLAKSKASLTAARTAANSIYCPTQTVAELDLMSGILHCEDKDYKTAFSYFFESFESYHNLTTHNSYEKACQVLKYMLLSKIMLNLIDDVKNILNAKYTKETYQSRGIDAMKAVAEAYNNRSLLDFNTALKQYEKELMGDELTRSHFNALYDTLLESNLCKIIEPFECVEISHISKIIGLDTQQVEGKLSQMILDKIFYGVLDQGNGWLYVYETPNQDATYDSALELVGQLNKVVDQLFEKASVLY

[7] = target: T5, Rpn9, subunit of LP2 and lid purified from yeast (S. cerevisiae, UniProt Q04062 1-393); experiment: as above
T5 construct: Rpn9, S. cerevisiae proteasome lid subunit; source: purified from S. cerevisiae as part of LP2 or lid
T5 sequence (looked up): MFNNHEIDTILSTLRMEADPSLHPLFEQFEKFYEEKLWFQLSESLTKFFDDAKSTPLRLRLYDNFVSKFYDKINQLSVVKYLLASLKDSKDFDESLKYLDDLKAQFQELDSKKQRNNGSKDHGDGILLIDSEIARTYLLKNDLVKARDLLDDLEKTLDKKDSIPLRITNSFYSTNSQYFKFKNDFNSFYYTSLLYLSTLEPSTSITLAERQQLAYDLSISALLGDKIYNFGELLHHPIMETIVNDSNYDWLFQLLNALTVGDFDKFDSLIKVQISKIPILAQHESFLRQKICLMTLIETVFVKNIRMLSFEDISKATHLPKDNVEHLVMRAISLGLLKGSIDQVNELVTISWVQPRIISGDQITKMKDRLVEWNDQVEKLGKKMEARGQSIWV

[8] = target: T2, Rpn5, subunit of LP2 and lid purified …; experiment: cross-linking; QCLMS of lid purified from yeast as a whole complex: BS3-d0 / BS3-d4 at 1:200 protein to cross-linker, Buffer HA, 30°C 1 h; monomeric cross-linked complex cut from SDS-PAGE, trypsin, LC-MS/MS

B1: Rpn12, recombinant, full-length (natural protein, S. cerevisiae, UniProt P32496 1-274, looked up)
chain: MPSLAELTKSLSIAFENGDYAACEKLLPPIKIELIKNNLLIPDLSIQNDIYLNDLMITKRILEVGALASIQTFNFDSFENYFNQLKPYYFSNNHKLSESDKKSKLISLYLLNLLSQNNTTKFHSELQYLDKHIKNLEDDSLLSYPIKLDRWLMEGSYQKAWDLLQSGSQNISEFDSFTDILKSAIRDEIAKNTELSYDFLPLSNIKALLFFNNEKETEKFALERNWPIVNSKVYFNNQSKEKADYEDEMMHEEDQKTNIIEKAMDYAISIENIV
notes: Rpn12, S. cerevisiae proteasome lid subunit; also called recombinant Rpn12; purified Rpn12
- binding result [1]: binds

B2: Rpn11, subunit of LP2 and lid purified from yeast (natural protein, S. cerevisiae, UniProt P43588 1-306, looked up)
chain: MERLQRLMMNSKVGSADTGRDDTKETVYISSIALLKMLKHGRAGVPMEVMGLMLGEFVDDYTVNVVDVFAMPQSGTGVSVEAVDDVFQAKMMDMLKQTGRDQMVVGWYHSHPGFGCWLSSVDVNTQKSFEQLNSRAVAVVVDPIQSVKGKVVIDAFRLIDTGALINNLEPRQTTSNTGLLNKANIQALIHGLNRHYYSLNIDYHKTAKETKMLMNLHKEQWQSGLKMYDYEEKEESNLAATKSMVKIAEQYSKRIEEEKELTEEELKTRYVGRQDPKKHLSETADETLENNIVSVLTAGVNSVAIK
notes: Rpn11, S. cerevisiae proteasome lid subunit; source: purified from S. cerevisiae as part of LP2 or lid
- binding result [2]: binds
- binding result [3]: binds

B3: Rpn7, subunit of LP2 and lid purified from yeast (natural protein, S. cerevisiae, UniProt Q06103 1-429, looked up)
chain: MVDVEEKSQEVEYVDPTVNRVPNYEVSEKAFLLTQSKVSIEQRKEAAEFVLAKIKEEEMAPYYKYLCEEYLVNNGQSDLEHDEKSDSLNEWIKFDQELYNELCKKNESKIKELNEKIQKLEEDDEGELEQAQAWINLGEYYAQIGDKDNAEKTLGKSLSKAISTGAKIDVMLTIARLGFFYNDQLYVKEKLEAVNSMIEKGGDWERRNRYKTYYGIHCLAVRNFKEAAKLLVDSLATFTSIELTSYESIATYASVTGLFTLERTDLKSKVIDSPELLSLISTTAALQSISSLTISLYASDYASYFPYLLETYANVLIPCKYLNRHADFFVREMRRKVYAQLLESYKTLSLKSMASAFGVSVAFLDNDLGKFIPNKQLNCVIDRVNGIVETNRPDNKNAQYHLLVKQGDGLLTKLQKYGAAVRLTGSDRV
notes: Rpn7, S. cerevisiae proteasome lid subunit; source: purified from S. cerevisiae as part of LP2 or lid
- binding result [4]: binds

B4: N12pep, fluorescently labeled peptide of the Rpn12 C-terminal helix (peptide)
peptide: DQKTNIIEKAMDYAISIENIK(5,6‑carboxyfluorescein)
notes: Rpn12, S. cerevisiae, C-terminal helix; added lysine that carries 5,6-carboxyfluorescein; also called Rpn12 C-terminal helix peptide; source: synthetic peptide (Elim Biopharmaceuticals)
- binding result [5]: binds

Binder: B5
- binding result [6]: binds
- binding result [7]: binds
- binding result [8]: binds
